Assay results: patent publication US20260234206A1

What was measured:
calmodulin [1] = target: calmodulin (UniProt P0DP23); assay: microscale thermophoresis, labelled SXkmer A with free calmodulin in solution
calmodulin [2] = target: calmodulin (UniProt P0DP23); assay: SPR, CaM immobilised, SXkmer A injected, BiaEvaluate fit

- Kd (calmodulin [1]): 140 nM
- koff (calmodulin [2]): 1e-06 s⁻¹
Substance: Loop calmodulin binder SXkmer A (KMRPGVN) (designed binder)
